In US20160304625A1:

Molecular target: mIgM proximal domain peptide conjugated to keyhole limpet hemocyanin (human)
Experiment: ELISA direct binding, mIgM-PD-KLH

Control mAb (antibody)
ELISA reading: 0.1
